Source: US20190119318A1
“And” between values parts separate entries of the source, which are not always exact repeats. Equal values may be shown once.

Assays:
[1] = target: human polyclonal IgG (Gammanorm) (human); assay: column DBC; base C1; ligand […]
[2] = target: human polyclonal IgG (Gammanorm) (human); assay: column DBC; base C2; ligand […]
[3] = target: human polyclonal IgG (Gammanorm) (human); assay: column DBC; base C4; ligand […]
[4] = target: human polyclonal IgG (Gammanorm) (human); assay: column DBC; base A20; ligand […]
[5] = target: human polyclonal IgG (Gammanorm) (human); assay: column DBC; base A27; ligand […]
[6] = target: human polyclonal IgG (Gammanorm) (human); assay: column DBC; base A32; ligand […]
[7] = target: human polyclonal IgG (Gammanorm) (human); assay: column DBC; base A42; ligand […]
[8] = target: human polyclonal IgG (Gammanorm) (human); assay: column DBC; base H40; ligand […]
[9] = target: human polyclonal IgG (Gammanorm) (human); assay: SPR; vs reference Zvar4; 1 M NaOH
[10] = target: human polyclonal IgG (Gammanorm) (human); assay: SPR; vs reference Zvar4; 0.5 M NaOH
[11] = target: human polyclonal IgG (Gammanorm) (human); assay: SPR; after 100 CIP cycles 0.5 M NaOH
[12] = target: human polyclonal IgG (Gammanorm) (human); assay: column DBC; base A29; ligand 11 mg/ml
[13] = target: human polyclonal IgG (Gammanorm) (human); assay: column DBC; base C3; ligand 9.0 mg/ml
[14] = target: human polyclonal IgG (Gammanorm) (human); assay: column DBC; base I1; ligand 6.1 mg/ml
[15] = target: human polyclonal IgG (Gammanorm) (human); assay: column DBC; base A18; ligand 8.2 mg/ml
[16] = target: human polyclonal IgG (Gammanorm) (human); assay: column DBC; base A20; ligand 7.3 mg/ml
[17] = target: human polyclonal IgG (Gammanorm) (human); assay: column DBC; base A27; ligand 7.5 mg/ml
[18] = target: human polyclonal IgG (Gammanorm) (human); assay: column DBC; base A29; ligand 7.3 mg/ml
[19] = target: human polyclonal IgG (Gammanorm) (human); assay: column DBC; base A33; ligand 7.3 mg/ml
[20] = target: human polyclonal IgG (Gammanorm) (human); assay: column DBC; base A33; ligand 9.4 mg/ml
[21] = target: human polyclonal IgG (Gammanorm) (human); assay: column DBC; base A38; ligand 7.5 mg/ml
[22] = target: human polyclonal IgG (Gammanorm) (human); assay: column DBC; base A41; ligand 5.0 mg/ml
[23] = target: human polyclonal IgG (Gammanorm) (human); assay: column DBC; base C1; ligand 10.8 mg/ml
[24] = target: human polyclonal IgG (Gammanorm) (human); assay: column DBC; base H40; ligand 9.1 mg/ml
[25] = target: human polyclonal IgG (Gammanorm) (human); assay: column DBC; base A18; ligand 13.4 mg/ml
[26] = target: human polyclonal IgG (Gammanorm) (human); assay: column DBC; base A38; ligand 11.3 mg/ml
[27] = target: human polyclonal IgG (Gammanorm) (human); assay: column DBC; base A39; ligand 6.96 mg/ml
[28] = target: human polyclonal IgG (Gammanorm) (human); assay: column DBC; base A40; ligand 13.2 mg/ml
[29] = target: human polyclonal IgG (Gammanorm) (human); assay: column DBC; base A41; ligand 8.83 mg/ml
[30] = target: human polyclonal IgG (Gammanorm) (human); assay: column DBC; base A42; ligand 6.72 mg/ml
[31] = target: human polyclonal IgG (Gammanorm) (human); assay: column DBC; base A43; ligand 6.99 mg/ml
[32] = target: human polyclonal IgG (Gammanorm) (human); assay: column DBC; base A62a; ligand 6.4 mg/ml
[33] = target: human polyclonal IgG (Gammanorm) (human); assay: column DBC; base A62a; ligand 7.5 mg/ml
[34] = target: human polyclonal IgG (Gammanorm) (human); assay: column DBC; base A62a; ligand 9.7 mg/ml
[35] = target: human polyclonal IgG (Gammanorm) (human); assay: column DBC; base A63a; ligand 6.1 mg/ml
[36] = target: human polyclonal IgG (Gammanorm) (human); assay: column DBC; base A65b; ligand 8.8 mg/ml
[37] = target: human polyclonal IgG (Gammanorm) (human); assay: column DBC; base A63a; ligand 14.0 mg/ml
[38] = target: human polyclonal IgG (Gammanorm) (human); assay: column DBC; ligand 13 mg/ml; before incubation in 1 M NaOH
[39] = target: human polyclonal IgG (Gammanorm) (human); assay: column DBC; ligand 16 mg/ml; before incubation in 1 M NaOH
[40] = target: human polyclonal IgG (Gammanorm) (human); assay: column DBC; ligand 20 mg/ml; before incubation in 1 M NaOH

## Zvar(Q9A,N11E,Q40V,A42K,N43A,L44I)4 (designed binder)
[1]
  Qb10% 2.4 min: 38 mg/mL
  Qb10% 6 min: 47 mg/mL
[2]
  Qb10% 2.4 min: 39 mg/mL
  Qb10% 6 min: 46 mg/mL
[3]
  Qb10% 2.4 min: 59 mg/mL
  Qb10% 6 min: 67 mg/mL
[4]
  Qb10% 2.4 min: 49 mg/mL
  Qb10% 6 min: 67 mg/mL
[5]
  Qb10% 2.4 min: 24.8 mg/mL
  Qb10% 6 min: 55.6 mg/mL
[6]
  Qb10% 2.4 min: 40 mg/mL
  Qb10% 6 min: 57 mg/mL
[7]
  Qb10% 2.4 min: 32.2 mg/mL
  Qb10% 6 min: 57.8 mg/mL
[8]
  Qb10% 2.4 min: 47 mg/mL
  Qb10% 6 min: 52 mg/mL
[9]
  capacity relative to ref. 100 cycles: 2.07
[10]
  capacity relative to ref. 100 cycles: 1.34
  capacity relative to ref. 200 cycles: 2.06
  capacity relative to ref. 300 cycles: 3.56
[11]
  remaining capacity 100 cycles: 90%
[12]
  Qb10% 2.4 min: 34.9 mg/mL
  Qb10% 6 min: 64.7 mg/mL
[13]
  Qb10% 2.4 min: 49 mg/mL
  Qb10% 6 min: 62 mg/mL
[14]
  Qb10% 2.4 min: 45 mg/mL
  Qb10% 6 min: 51 mg/mL
[15]
  Qb10% 2.4 min: 52 mg/mL
  Qb10% 6 min: 59 mg/mL
[16]
  Qb10% 2.4 min: 45.1 mg/mL and 45 mg/mL
  Qb10% 6 min: 57.2 mg/mL and 57 mg/mL
[17]
  Qb10% 2.4 min: 29.2 mg/mL
  Qb10% 6 min: 48.7 mg/mL
[18]
  Qb10% 2.4 min: 36.3 mg/mL
  Qb10% 6 min: 51.8 mg/mL
[19]
  Qb10% 2.4 min: 49 mg/mL
  Qb10% 6 min: 56 mg/mL
[20]
  Qb10% 2.4 min: 51 mg/mL
  Qb10% 6 min: 58 mg/mL
[21]
  Qb10% 2.4 min: 44 mg/mL
  Qb10% 6 min: 58 mg/mL
[22]
  Qb10% 2.4 min: 35.6 mg/mL
  Qb10% 6 min: 46 mg/mL
[23]
  Qb10% 2.4 min: 43 mg/mL
  Qb10% 6 min: 60 mg/mL
[24]
  Qb10% 2.4 min: 52 mg/mL
  Qb10% 6 min: 67 mg/mL
[25]
  Qb10% 6 min: 63 mg/mL
[26]
  Qb10% 2.4 min: 48 mg/mL
  Qb10% 6 min: 73 mg/mL
[27]
  Qb10% 2.4 min: 41.9 mg/mL
  Qb10% 6 min: 54.7 mg/mL
[28]
  Qb10% 2.4 min: 57 mg/mL
  Qb10% 6 min: 71 mg/mL
[29]
  Qb10% 2.4 min: 38.5 mg/mL and 37.8 mg/mL and 35.1 mg/mL
  Qb10% 6 min: 56.8 mg/mL and 58.6 mg/mL and 57.2 mg/mL
[30]
  Qb10% 2.4 min: 33.6 mg/mL
  Qb10% 6 min: 50 mg/mL
[31]
  Qb10% 2.4 min: 33.4 mg/mL
  Qb10% 6 min: 49.8 mg/mL
[32]
  Qb10% 2.4 min: 43 mg/mL
  Qb10% 6 min: 45 mg/mL
[33]
  Qb10% 2.4 min: 47 mg/mL
  Qb10% 6 min: 56 mg/mL
[34]
  Qb10% 2.4 min: 48 mg/mL
  Qb10% 6 min: 60 mg/mL
[35]
  Qb10% 2.4 min: 39 mg/mL
  Qb10% 6 min: 44 mg/mL
[36]
  Qb10% 2.4 min: 49 mg/mL
  Qb10% 6 min: 56 mg/mL
[37]
  Qb10% 2.4 min: 48 mg/mL
  Qb10% 6 min: 56 mg/mL
[38]
  Qb10%, 6 min, before incubation: 79 mg/mL
[39]
  Qb10%, 6 min, before incubation: 73 mg/mL
[40]
  Qb10%, 6 min, before incubation: 73 mg/mL
